Reference: US20240344028A1, “Serum-free media for producing adipocytes for animal consumption” (Mosa Meat B.V., priority 2021, published 2024)

System: Adipogenic progenitor cells
Experiment: 2D adipogenic differentiation with DMAD components removed or at changed concentration
Type: cell-based, bovine
Settings: single component removed from DMAD
Experimental: At 90% confluence, proliferated MSCs were trypsinized and seeded in a 96-well collagen coated cell culture plate at 30,000 cells/cm^2 in SF-PM. After 24 hours, adipogenesis was induced by changing SF-PM to DMAD (the serum-free differentiation medium as depicted in Example 1), which was maintained on the cells for a period of 12 days with media changes every 3-4 days. As a control differentiation medium (ctrl), DMEM/F12 with 3% FBS was supplemented with 4 conventional adipogenic inducers (IBMX (Sigma Aldrich-15879; 0.5 mM), dexamethasone (Sigma Aldrich-D4902; 10 μM), rosiglitazone (Sigma Aldrich-R2408; 5 μM) and insulin (Peprotech-10-365; 10 μM)). All 4 inducers were used for the first 3 days of culture and only insulin and rosiglitazone were used for the remaining 9 days.
Cells were fixed on days 6 and 12 with 4% PFA for 20 minutes at room temperature and washed twice with PBS. Cells were then stained with Hoechst (ThermoFisher 493/503, 1:2000) and BODIPY (Sigma Aldrich 345880, 1:1000) in PBS for 30 minutes. Adipogenic differentiation was quantified using the ImageXPress Pico High Content Analyser (HCA; Molecular devices). The parameters measured were total area of lipid, lipid droplet average area and percentage of positive cells. […]

B1: BMP4: Recombinant Human BMP-4 (E. coli derived), 120-05ET from Peprotech (protein, UniProt P12644 293-408, looked up)
Bone morphogenetic protein 4: SPKHHSQRARKKNKNCRRHSLYVDFSDVGWNDWIVAPPGYQAFYCHGDCPFPLADHLNSTNHAIVQTLVNSVNSSIPKACCVPTELSAISMLYLDEYDKVVLKNYQEMVVEGCGCR
B1 was tested. Which “effect of removing the component from DMAD on percentage of positive cells and total lipid area” value did it give?
The value was “significantly decreased differentiation”.
